From paper PMC4898720, “NrdR Transcription Regulation: Global Proteome Analysis and Its Role in Escherichia coli Viability and Virulence” (PLoS ONE, 2016)

Biological target: the molecule itself
Assay: SDS-PAGE of gel filtration fractions with peptide mass fingerprinting; SDS-PAGE of Superdex 200 fractions of un-refolded and refolded NrdR; ~40 kDa band identified by peptide mass fingerprinting; samples boiled 10 min with 5 mM DTT

B1: E. coli NrdR (natural protein, UniProt P0A8D0 1-149, looked up)
chain: MHCPFCFAVDTKVIDSRLVGEGSSVRRRRQCLVCNERFTTFEVAELVMPRVVKSNDVREPFNEEKLRSGMLRALEKRPVSSDDVEMAINHIKSQLRATGEREVPSKMIGNLVMEQLKKLDKVAYIRFASVYRSFEDIKEFGEEIARLED
notes: Transcriptional repressor NrdR of E. coli BW25113, full length ORF cloned between NdeI and XhoI of pET21b; also called EcNrdR; as prepared NrdR; source: E. coli BL21 (DE3), purified (HisTrap Ni column, Superdex 200 gel filtration)
  stoichiometry N: 2
